Reference: patent US20150344544A1 (ACADEMIA SINICA, published 2015)

T1: FcγRIIa (UniProt P12318 34-217, limits assumed)
T1 construct: Used in ELISA; construct not described
T1 sequence (looked up): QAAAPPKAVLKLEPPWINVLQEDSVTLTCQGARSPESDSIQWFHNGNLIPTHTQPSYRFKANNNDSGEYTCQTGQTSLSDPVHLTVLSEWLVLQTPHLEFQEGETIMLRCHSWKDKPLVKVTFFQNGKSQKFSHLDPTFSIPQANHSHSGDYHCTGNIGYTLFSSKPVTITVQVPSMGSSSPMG

T2: FcγRIIb (UniProt P31994 43-217, limits assumed)
T2 construct: Used in ELISA; construct not described
T2 sequence (looked up): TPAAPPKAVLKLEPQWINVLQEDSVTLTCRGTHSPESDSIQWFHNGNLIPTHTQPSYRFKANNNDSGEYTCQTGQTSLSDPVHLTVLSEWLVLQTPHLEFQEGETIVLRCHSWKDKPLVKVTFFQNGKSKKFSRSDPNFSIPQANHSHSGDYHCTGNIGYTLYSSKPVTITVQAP

B1: Rituximab (antibody, human IgG1, kappa)
heavy: not shown
light: QIVLSQSPAILSASPGEKVTMTCRASSSVSYIHWFQQKPGSSPKPWIYATSNLASGVPVRFSGSGSGTSYSLTISRVEAEDAATYYCQQWTSNPPTFGGGTKLEIKRTVAAPSVFIFPPSDEQLKSGTASVVCLLNNFYPREAKVQWKVDNALQSGNSQESVTEQDSKDSTYSLSSTLTLSKADYEKHKVYACEVTHQGLSSPVTKSFNRGEC
notes: Commercial IgG1 with its native heterogeneous Fc glycans; also called Rituxan; Roche-Rituximab
B2: G6 glycoengineered Rituximab (antibody, human IgG1, kappa)
heavy: not shown
light: B1 light
modifications: homogeneous afucosylated Fc N-glycan (Asn-297): GalGlcNAc2Man3GlcNAc2
notes: IgG1; also called anti-CD20 GAb106
B3: 2,6-NSCT-Rituximab (antibody, human IgG1, kappa)
heavy: not shown
light: B1 light
modifications: homogeneous afucosylated Fc N-glycan (Asn-297): Sia2(α2-6)Gal2GlcNAc2Man3GlcNAc2
notes: also called anti-CD20 GAb101
B4: 2,3-NSCT-Rituximab (antibody, human IgG1, kappa)
heavy: not shown
light: B1 light
modifications: homogeneous afucosylated Fc N-glycan (Asn-297), 2,3-sialylated: Sia2(α2-3)Gal2GlcNAc2Man3GlcNAc2
B5: mono-GlcNAc Rituximab (antibody, human IgG1, kappa)
heavy: not shown
light: B1 light
modifications: single GlcNAc (defucosylated) at the Fc N-glycosylation site (Asn-297)
notes: IgG1; made from Rituximab with fucosidase BfFucH and an endoglycosidase; also called N-Rituximab
B6: G8 glycoengineered Rituximab (antibody, human IgG1, kappa)
heavy: not shown
light: B1 light
modifications: homogeneous afucosylated Fc N-glycan (Asn-297): GlcNAcMan3GlcNAc2
notes: IgG1; also called anti-CD20 GAb110
B7: G9 glycoengineered Rituximab (antibody, human IgG1, kappa)
heavy: not shown
light: B1 light
modifications: homogeneous afucosylated bisected Fc N-glycan (Asn-297): GlcNAc3Man3GlcNAc2
notes: IgG1; bisected glycan; also called anti-CD20 GAb107
B8: G1 glycoengineered Rituximab (antibody, human IgG1, kappa)
heavy: not shown
light: B1 light
modifications: homogeneous afucosylated Fc N-glycan (Asn-297): Gal2GlcNAc2Man3GlcNAc2
notes: IgG1; also called anti-CD20 GAb104
B9: G3 glycoengineered Rituximab (antibody, human IgG1, kappa)
heavy: not shown
light: B1 light
modifications: homogeneous afucosylated Fc N-glycan (Asn-297): GlcNAcMan3GlcNAc2
notes: IgG1; also called anti-CD20 GAb109
B10: G7 glycoengineered Rituximab (antibody, human IgG1, kappa)
heavy: not shown
light: B1 light
modifications: homogeneous afucosylated Fc N-glycan (Asn-297): Man3GlcNAc2
notes: IgG1; also called anti-CD20 GAb111

Biological target: T3, FcγRIIIa (UniProt P08637 17-208, limits assumed)
T3 construct: Soluble receptor used in ELISA and SPR; source and construct not described; also called FcRIIIA
T3 sequence (P08637 17-208 limits assumed): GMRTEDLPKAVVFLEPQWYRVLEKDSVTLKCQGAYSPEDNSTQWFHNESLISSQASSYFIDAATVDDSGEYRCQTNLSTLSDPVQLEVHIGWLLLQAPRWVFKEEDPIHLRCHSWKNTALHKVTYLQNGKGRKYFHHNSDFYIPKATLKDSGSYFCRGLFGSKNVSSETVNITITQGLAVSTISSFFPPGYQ
Assay: SPR

Kd	Binder
100 nM	B1
7 to 30 nM	B2

Biological target: T1, FcγRIIa
Assay: ELISA

EC50	Binder
5.4 nM	B1
3 nM	B3
16.5 nM	B4

Biological target: T4, C1q (UniProt P02745 23-245; P02746 28-253; P02747 29-245)
T4 construct: Complement component C1q used in ELISA; source not described
T4 sequence (P02745 23-245 limits assumed, chain 1 of 3): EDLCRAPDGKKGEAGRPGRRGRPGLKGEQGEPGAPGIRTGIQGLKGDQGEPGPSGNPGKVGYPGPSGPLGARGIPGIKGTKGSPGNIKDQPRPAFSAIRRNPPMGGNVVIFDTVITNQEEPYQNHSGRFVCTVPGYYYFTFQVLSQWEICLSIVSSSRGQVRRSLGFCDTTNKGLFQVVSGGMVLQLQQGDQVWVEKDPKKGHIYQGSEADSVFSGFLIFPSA
T4 sequence (P02746 28-253 limits assumed, chain 2 of 3): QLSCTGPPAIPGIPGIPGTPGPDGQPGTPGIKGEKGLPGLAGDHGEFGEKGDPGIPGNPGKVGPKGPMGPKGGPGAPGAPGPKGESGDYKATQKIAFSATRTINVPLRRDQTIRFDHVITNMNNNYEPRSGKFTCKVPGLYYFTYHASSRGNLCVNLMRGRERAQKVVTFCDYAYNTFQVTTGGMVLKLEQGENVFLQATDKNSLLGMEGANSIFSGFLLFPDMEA
T4 sequence (P02747 29-245 limits assumed, chain 3 of 3): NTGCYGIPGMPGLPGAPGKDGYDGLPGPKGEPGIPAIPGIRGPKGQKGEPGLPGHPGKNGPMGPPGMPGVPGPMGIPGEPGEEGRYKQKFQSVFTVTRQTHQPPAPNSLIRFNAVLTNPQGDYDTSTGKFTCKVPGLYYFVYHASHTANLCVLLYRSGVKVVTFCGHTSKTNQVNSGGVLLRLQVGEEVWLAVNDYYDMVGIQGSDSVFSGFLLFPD
Assay: ELISA

EC50	Binder
6.5 nM	B1
8 nM	B3

Biological target: T5, FcγRI (UniProt P12314 16-288, limits assumed)
T5 construct: Used in ELISA; construct not described
T5 sequence (P12314 16-288 limits assumed): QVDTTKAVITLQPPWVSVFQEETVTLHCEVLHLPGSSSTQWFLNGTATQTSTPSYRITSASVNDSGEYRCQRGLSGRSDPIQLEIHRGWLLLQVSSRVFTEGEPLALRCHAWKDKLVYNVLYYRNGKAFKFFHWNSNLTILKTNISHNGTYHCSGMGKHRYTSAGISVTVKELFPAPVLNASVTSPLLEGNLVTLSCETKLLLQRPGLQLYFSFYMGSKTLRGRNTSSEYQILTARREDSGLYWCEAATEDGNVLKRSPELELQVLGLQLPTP
Assay: ELISA

EC50	Binder
0.19 nM	B1
0.23 nM	B3
0.85 nM	B5

Biological target: T3, FcγRIIIa
Assay: ELISA

EC50	Binder
6.2 to 9 nM	B1
0.24 to 0.27 nM	B3
36.3 nM	B5

Biological target: T2, FcγRIIb
Assay: ELISA

EC50	Binder
0.51 nM	B1
0.28 nM	B3
0.32 nM	B5
0.53 nM	B4

Biological target: T3, FcγRIIIa
Assay: SPR, antibody captured with Human Fab capture kit, single cycle kinetics
Source text: Analyzed antibodies were captured by means of the Human Fab capture kit and detected with the single cycle kinetic method.

Kd	Binder
120 nM	B6
8.28 nM	B3
27.2 nM	B2
26.2 nM	B7
9.33 nM	B8
83.6 nM	B9
62.7 nM	B10

Biological target: T3, FcγRIIIa
Assay: SPR; commercial Rituxan, not glycoengineered (reference)

Kd	Binder
≤ 300 nM	B1

Biological target: T4, C1q
Assay: cell-based or functional assay

EC50 (ug/ml), CDC assay on Ramos cells, FACS	Binder
0.033 µg/mL	B1
0.039 µg/mL	B3
0.086 µg/mL	B4

Biological target: T3, FcγRIIIa
Assay: cell-based or functional assay

EC50 (ug/ml), PBMC mediated ADCC on Raji cells	EC50 (ug/ml), PBMC mediated ADCC on Ramos cells	EC50 (ug/ml), PBMC mediated ADCC on SKW6.4 cells	Binder
0.319 µg/mL	4.38 µg/mL	2.07 µg/mL	B1
0.022 µg/mL	0.377 µg/mL	0.276 µg/mL	B3
0.086 µg/mL	1.45 µg/mL	1.22 µg/mL	B4
